For two substances, fold downregulation of cell surface CD3 relative to ΔNef, transduced primary huCD4+ T cells, flow cytometry (Fig. 5B) results are on record in PMC12724223.

The experiment has as its target T cell receptor subunit CD3ζ (human) (human (endogenous in primary CD4+ T cells)).

SIVmac239 WT Nef (natural protein) came in with a fold downregulation of cell surface CD3 relative to ΔNef, transduced primary huCD4+ T cells, flow cytometry (Fig. 5B) of 15.2 fold.

For the substance “SIVmac239 I123L L146F Nef (natural protein)”, the fold downregulation of cell surface CD3 relative to ΔNef, transduced primary huCD4+ T cells, flow cytometry (Fig. 5B) was determined as 2.7 fold.
